Laboratory results reported in PMC5878720.

Target: T1, IL-11Rα (human (endogenous in RA ST fibroblasts and HUVECs)) (UniProt Q14626)
T1 sequence: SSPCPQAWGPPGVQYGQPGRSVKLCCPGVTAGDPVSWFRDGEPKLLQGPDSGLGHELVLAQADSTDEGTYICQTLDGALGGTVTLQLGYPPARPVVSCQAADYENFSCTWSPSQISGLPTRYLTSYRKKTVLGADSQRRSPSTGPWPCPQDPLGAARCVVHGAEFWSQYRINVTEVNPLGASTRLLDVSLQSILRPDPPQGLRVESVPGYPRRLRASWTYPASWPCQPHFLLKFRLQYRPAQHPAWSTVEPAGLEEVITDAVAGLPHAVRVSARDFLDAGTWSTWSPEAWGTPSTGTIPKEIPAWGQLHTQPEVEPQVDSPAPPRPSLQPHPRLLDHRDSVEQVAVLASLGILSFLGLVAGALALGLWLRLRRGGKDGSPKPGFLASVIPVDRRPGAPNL

HUVEC transwell migration, 24h, IL-11 1-100 ng/ml, fold over control: 3 to 15 fold
B1: IL-11 (ligand)
chain: PGPPPGPPRVSPDPRAELDSTVLLTRSLLADTRQLAAQLRDKFPADGDHNLDSLPTLAMSAGALGALQLPGVLTRLRADLLSYLRHVQWLRRAGGSSLKTLEPELGTLQARLDRLLRRLQLLMSRLALPQPPPDPPAPPLAPPSSAWGGIRAAHAILGGLHLTLDWAVRGLLLLKTRL
